Laboratory results as given in publication PMC2704292.

Target: actin of the thin filaments of rabbit psoas myofibrils (rabbit (endogenous in psoas myofibrils)) (UniProt P68135)
Test: co-sedimentation

average level of replacement of Tm in reconstituted myofibrils: 96%
Substance: rabbit fast skeletal tropomyosin (from UniProt P58772 1-284; P58776 1-284) (natural protein)
